B1: soluble form of human B7-1 (ligand)
chain: VIHVTKEVKEVATLSCGHNVSVEELAQTRIYWQKEKKMVLTMMSGDMNIWPEYKNRTIFDITNNLSIVILALRPSDEGTYECVVLKYEKDAFKREHLAEVTLSVKADFPTPSISDFEIPTSNIRRIICSTSGGFPEPHLSWLENGEELNAINTTVSQDPETELYAVSSKLDFNMTTNHSFMCLIKYGHLRVNQTFNWNTTKQEHFPDN
notes: also called soluble B7-1
B2: soluble form of human B7-2 (ligand)
chain: APLKIQAYFNETADLPCQFANSQNQSLSELVVFWQDQENLVLNEVYLGKEKFDSVHSKYMGRTSFDSDSWTLRLHNLQIKDKGLYQCIIHHKKPTGMIRIHQMNSELSVLANFSQPEIVPISNITENVYINLTCSSIHGYPEPKKMSVLLRTKNSTIEYDGVMQKSQDNVTELYDVSISLSVSFPDVTSNMTIFCILETDKTRLLSSPFSIELEDPQPPPDHIP
notes: also called soluble B7-2
B3: B7-1 expressed on transfected COS cells (ligand)
chain: VIHVTKEVKEVATLSCGHNVSVEELAQTRIYWQKEKKMVLTMMSGDMNIWPEYKNRTIFDITNNLSIVILALRPSDEGTYECVVLKYEKDAFKREHLAEVTLSVKADFPTPSISDFEIPTSNIRRIICSTSGGFPEPHLSWLENGEELNAINTTVSQDPETELYAVSSKLDFNMTTNHSFMCLIKYGHLRVNQTFNWNTTKQEHFPDNLLPSWAITLISVNGIFVICCLTYCFAPRCRERRRNERLRRESVRPV
notes: whole, on cells; also called CD80
B4: murine PD-1-Fc (Fc fusion, UniProt Q02242 25-167, looked up)
chain: LEVPNGPWRSLTFYPAWLTVSEGANATFTCSLSNWSEDLMLNWNRLSPSNQTEKQAAFCNGLSQPVQDARFQIIQLPNRHDFHMNILDTRRNDSGIYLCGAISLHPKAKIEESPGAELVVTERILETSTRYPSPSPKPEGRFQ
notes: also called murine PD-1.Ig; mouse PD-1; not shown: Fc portion
B5: IA^d expressed on CHO transfectants (CHO-IA^d) (other)
alpha: EDDIEADHVGFYGTTVYQSPGDIGQYTHEFDGDELFYVDLDKKKTVWRLPEFGQLILFEPQGGLQNIAAEKHNLGILTKRSNFTPATNEAPQATVFPKSPVLLGQPNTLICFVDNIFPPVINITWLRNSKSVTDGVYETSFLVNRDHSFHKLSYLTFIPSDDDIYDCKVEHWGLEEPVLKHWEPEIPAPMSELTETVVCALGLSVGLVGIVVGTIFIIQGLRSGGTSRHPGPL
beta: GNSERHFVVQFKGECYYTNGTQRIRLVTRYIYNREEYVRYDSDVGEYRAVTELGRPDAEYWNSQPEILERTRAEVDTACRHNYEGPETSTSLRRLEQPNVAISLSRTEALNHHNTLVCSVTDFYPAKIKVRWFRNGQEETVGVSSTQLIRNGDWTFQVLVMLEMTPHQGEVYTCHVEHPSLKSPITVEWRAQSESARSKMLSGIGGCVLGVIFLGLGLFIRHRSQKGPRGPPPAGLLQ
notes: present on CHO-IA^d, CHO-IA^d/B7.2 and CHO-IA^d/B7.2/B7-4; copies: 1 + 1
B6: B7-2 expressed on transfected COS cells (ligand)
chain: APLKIQAYFNETADLPCQFANSQNQSLSELVVFWQDQENLVLNEVYLGKEKFDSVHSKYMGRTSFDSDSWTLRLHNLQIKDKGLYQCIIHHKKPTGMIRIHQMNSELSVLANFSQPEIVPISNITENVYINLTCSSIHGYPEPKKMSVLLRTKNSTIEYDGVMQKSQDNVTELYDVSISLSVSFPDVTSNMTIFCILETDKTRLLSSPFSIELEDPQPPPDHIPWITAVLPTVIICVMVFCLILWKWKKKKRPRNSYKCGTNTMEREESEQTKKREKIHIPERSDEAQRVFKSSKTSSCDKSDTCF
notes: whole, on cells; also called CD86
B7: murine ICOS-his fusion protein (receptor, UniProt Q9WVS0 21-144, looked up)
chain: EINGSADHRMFSFHNGGVQISCKYPETVQQLKMRLFREREVLCELTKTKGSGNAVSIKNPMLCLYHLSNNSVSFFLNNPDSSQGSYYFCSLSIFDPPPFQERNLSGGYLHIYESQLCCQLKLWL
notes: not shown: his tag

Tests used:
[1] = biological target: PD-1 on T cells (species not stated); test: cell-based or functional assay
[2] = biological target: T1, human PD-1-Fc (human Ig gamma 1) (human, UniProt P01857 99-330 = IgG part); test: BIACORE, PD-1-Fc immobilized
T1 construct: domain: hinge-CH2-CH3; also called human PD-1 linked to IgG1

[3] = biological target: T1, human PD-1-Fc (human Ig gamma 1); test: flow cytometry on B7-1-transfected COS cells, anti-IgG-PE
Description: COS cells were transfected with either B7-4M or B7-1 using LipofectAMINE transfection reagent. […] The cells were then analyzed by flow cytometry.

[4] = biological target: T2, human B7-4M expressed on transfected COS or CHO cells (human, UniProt Q9NZQ7 19-290); test: flow cytometry on CHO cells expressing human B7-4
T2 construct: Full-length B7-4M cDNA expressed on COS or CHO cells; also called PD-L1

[5] = biological target: T3, murine B7-4 expressed on transfected cells (murine, UniProt Q9EP73 19-290); test: flow cytometry on CHO cells expressing murine B7-4
T3 construct: also called mouse B7-4; mB7-4

[6] = biological target: T4, human PD-1 fused to murine Ig gamma2a (human; murine, UniProt P01863 98-330 = IgG part, limits assumed); test: flow cytometry on CHO-IA^d cells, hPD-1-Ig developed with goat anti-murine IgG2a-PE
T4 construct: domain: hinge-CH2-CH3; The Fc mutations are not specified; also called human PD-1 gamma 2a fusion protein; hPD-1-Ig
Description: In addition, cells were stained separately with 5 μg/ml anti-IA^d-PE or B7.2-PE (Pharmingen, San Diego, Calif.). Following each step, cells were washed three times with PBS/1% BSA/0.02% sodium azide. After the final incubation, cells were fixed with 1% paraformaldehyde. Ten thousand events were analyzed on a FACSCalibar (Becton Dickinson, Mountain View, Calif.). All isotype controls were obtained from Pharmingen.

[7] = biological target: T1, human PD-1-Fc (human Ig gamma 1); test: in situ staining of transfected COS cell monolayers
Description: In addition, an in situ assay of transfected COS cell monolayers was performed. […] Binding was visualized with chromogenic substrates 5-bromo-4-chloro-3-indolyl phosphate and nitro blue tetrazolium and light microscopy.

[8] = biological target: T2, human B7-4M expressed on transfected …; test: flow cytometry on B7-4M-transfected COS cells
[9] = biological target: B3; test: flow cytometry (FITC) on B7-1-transfected COS cells

T1 sequence (P01857 other isoform, or with tags, fused parts or gaps limits assumed): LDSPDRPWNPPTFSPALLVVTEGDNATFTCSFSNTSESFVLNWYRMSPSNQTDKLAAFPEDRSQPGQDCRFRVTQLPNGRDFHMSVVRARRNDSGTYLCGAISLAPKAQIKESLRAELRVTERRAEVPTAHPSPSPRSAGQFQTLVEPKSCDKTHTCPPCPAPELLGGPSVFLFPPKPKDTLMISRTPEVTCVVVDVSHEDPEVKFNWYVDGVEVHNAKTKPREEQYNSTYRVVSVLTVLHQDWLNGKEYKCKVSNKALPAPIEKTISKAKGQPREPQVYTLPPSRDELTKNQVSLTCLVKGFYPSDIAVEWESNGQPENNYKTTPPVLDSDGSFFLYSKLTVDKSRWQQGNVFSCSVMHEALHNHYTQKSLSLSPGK
T2 sequence (Q9NZQ7 19-290): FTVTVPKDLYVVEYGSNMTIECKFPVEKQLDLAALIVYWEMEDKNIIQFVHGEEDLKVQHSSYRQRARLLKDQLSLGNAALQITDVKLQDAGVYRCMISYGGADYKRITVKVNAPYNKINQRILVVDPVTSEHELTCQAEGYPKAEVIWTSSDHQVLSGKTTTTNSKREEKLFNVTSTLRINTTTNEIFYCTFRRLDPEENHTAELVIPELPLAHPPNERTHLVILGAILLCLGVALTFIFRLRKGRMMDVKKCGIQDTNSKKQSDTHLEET
T3 sequence (Q9EP73 19-290 limits assumed): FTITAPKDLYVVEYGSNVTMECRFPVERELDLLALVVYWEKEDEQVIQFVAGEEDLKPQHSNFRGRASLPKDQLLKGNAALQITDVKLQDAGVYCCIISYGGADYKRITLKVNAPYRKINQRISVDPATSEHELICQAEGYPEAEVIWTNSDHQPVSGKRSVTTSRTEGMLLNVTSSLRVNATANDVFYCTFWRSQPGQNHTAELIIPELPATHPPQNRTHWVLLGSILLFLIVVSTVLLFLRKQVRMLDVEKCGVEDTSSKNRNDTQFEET
T4 sequence (P01863 other isoform, or with tags, fused parts or gaps limits assumed): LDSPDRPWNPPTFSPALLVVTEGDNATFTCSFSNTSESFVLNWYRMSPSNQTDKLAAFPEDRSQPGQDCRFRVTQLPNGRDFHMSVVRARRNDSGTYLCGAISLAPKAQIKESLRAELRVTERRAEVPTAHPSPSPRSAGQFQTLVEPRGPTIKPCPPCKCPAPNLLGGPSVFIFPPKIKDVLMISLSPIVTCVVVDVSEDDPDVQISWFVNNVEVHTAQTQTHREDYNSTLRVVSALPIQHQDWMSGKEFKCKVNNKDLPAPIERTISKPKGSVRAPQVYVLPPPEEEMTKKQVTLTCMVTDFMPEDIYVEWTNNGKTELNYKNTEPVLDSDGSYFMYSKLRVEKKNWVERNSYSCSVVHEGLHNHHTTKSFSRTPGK

With “B7-4.Fc / PDL1.Ig fusion protein (species not stated) (Fc fusion)” the % CD69+ T cells at 24 hours, anti-CD3/B7-4.Fc (anti-CD3 alone 26%) [1] was 26%, the % CD69+ T cells at 48 hours, anti-CD3/B7-4.Fc (anti-CD3 alone 46%) [1] was 36% and the % CD69+ T cells at 72 hours, anti-CD3/B7-4.Fc (anti-CD3 alone 63%) [1] was 42%. It also gave a % IL-2R+ (CD25) T cells at 24 hours, anti-CD3/B7-4.Fc (anti-CD3 alone 17%) [1] of 12%, a % IL-2R+ (CD25) T cells at 48 hours, anti-CD3/B7-4.Fc (anti-CD3 alone 29%) [1] of 17% and a % IL-2R+ (CD25) T cells at 72 hours, anti-CD3/B7-4.Fc (anti-CD3 alone 54%) [1] of 15%. For the same molecule, the % apoptotic T cells (propidium iodide and annexin positive) at 24 hours, anti-CD3/B7-4.Fc (anti-CD3 alone 3%) [1] was 3%, the % apoptotic T cells at 48 hours, anti-CD3/B7-4.Fc (anti-CD3 alone 5%) [1] was 4% and the % apoptotic T cells at 72 hours, anti-CD3/B7-4.Fc (anti-CD3 alone 10%) [1] was 12%.

B1: no binding [2].

B2: no binding [2].

B3: no binding [3].

B4: binds [4]; binds [5].

B5: no binding (tested: 5 ug/ml) [6].

B6: no binding [7].

B7: no binding [8]; no binding [9].
